We go through one molecule from publication PMC5906480, “Tau Antibody Structure Reveals a Molecular Switch Defining a Pathological Conformation of the Tau Protein” (Scientific Reports, 2018).

The test system of assay [1] is FITC-conjugated non-phosphorylated tau peptide. Briefly: Fluorescence polarization direct binding, non-phosphorylated peptide. The conditions noted are these: Fab C5.2 675 nM to 0.08 nM; FITC-peptide 300 nM; 25 °C; fluorescence dip around 10 nM Fab due to protein aggregation and fluorophore quenching. The method, then: (§1) FITC-labeled peptides used in fluorescence polarization experiments were synthesized by Biomatik (Cambridge, ON, Canada). Fab C5.2 affinity was determined using a fluorescence polarization-based direct binding assay with fluorescein isothiocyanate (FITC)-conjugated peptides (Table 1). The FITC-peptide concentration was kept constant at 300 nM while Fab C5.2 was serially diluted from 675 nM to 0.08 nM. Data was collected at 25 °C using excitation and emission wavelengths of 485 nm and 535 nm, respectively. Each experiment was done in a single 96-well plate and calculated in triplicate (buffer: 50 mM Tris, 100 mM NaCl, 0.1% pluronic F-127). The experiments were performed with a DTX 880 Multimode Detector (Beckman Coulter, Jersey City, NJ). Fluorescence data was reduced using multimode detection software and KD values were calculated in GraphPad Prism 7.0 using a nonlinear regression model.
(§2) To accurately measure the C5.2 binding affinity, we performed fluorescence polarization experiments to determine dissociation constants (KD), using the Fab C5.2 and four differentially phosphorylated FITC-conjugated peptides (Table 1). The peptide concentration was kept constant while that of Fab C5.2 was serially diluted from 675 nM to 0.08 nM (Fig. 1d). […] In comparison with a […] IgG molecule, each Fab fragment contains a single binding site so the KD was calculated using a nonlinear model.
On the technique in general: Polarisation of emitted light reports the rotation of a fluorescent probe.

In assay [2] the target is FITC-conjugated tau peptide pS396. The assay is described as follows: Fluorescence polarization direct binding, pS396 peptide. The following applies: Fab C5.2 675 nM to 0.08 nM; FITC-peptide 300 nM; 25 °C; 50 mM Tris, 100 mM NaCl, 0.1% pluronic F-127; ex 485/em 535 nm; triplicate; nonlinear regression. The method, then:
as §1, §2

Assay [3] concerns the target FITC-conjugated tau peptide pS396/pS404. The assay is described as follows: Fluorescence polarization direct binding, pS396/pS404 peptide. The following applies: Fab C5.2 675 nM to 0.08 nM; FITC-peptide 300 nM; 25 °C; 50 mM Tris, 100 mM NaCl, 0.1% pluronic F-127; ex 485/em 535 nm; triplicate; nonlinear regression. The method, then:
as §1, §2

In assay [4] the test system is FITC-conjugated tau peptide pS404. Briefly: Fluorescence polarization direct binding, pS404 peptide. The conditions noted are these: Fab C5.2 675 nM to 0.08 nM; FITC-peptide 300 nM; 25 °C; fluorescence dip around 10 nM Fab due to protein aggregation and fluorophore quenching. The method, then:
as §1, §2

B1: Fab C5.2: Fab fragment of C5.2 prepared by papain digestion (antibody, V domains shown)
VH: QVQLQQSDAELVKPGASVKISCKASGYTFTDRTIHWVKQRPEQGLEWIGYIYPGDDSTKYNDMFKAKATLTADKSSNTAYMQLNSLTSDDSAVYFCARRGTMDYWGQGTSVTVSS
VL: DVQMIQSPSSLSASLGDIVTMTCQASQDTSINLNWFQQKPGKAPKLLIYGASNLEDGVPSRFSGSRYGTDFTLTISSLEDEDMATYFCLQHTYLPFTFGSGTKLEIK
Usually Kd stands for a measure of binding affinity in units of concentration. In the case of B1, the “Recognition of the non-phosphorylated peptide” value in assay [1] is “does not recognize”. For the same molecule, the values for the equilibrium dissociation constant (Kd) in assay [2] and in assay [3] were 14.9 nM and 15.4 nM, respectively. In addition, in assay [4], the “Recognition of peptide pS404” value is “does not recognize”.
